Measured values taken from article PMC10307626, “Structural basis of NINJ1-mediated plasma membrane rupture in cell death” (Nature, 2023).
Changes are numbered by the printed parent chain.

B1: hNINJ1∆1–36 (domain or fragment, human, UniProt Q92982 37-152, looked up)
chain: NVNHYASKKSAAESMLDIALLMANASQLKAVVEQGPSFAFYVPLVVLISISLVLQIGVGVLLIFLVKYDLNNPAKHAKLDFLNNLATGLVFIIVVVNIFITAFGVQKPLMDMAPQQ
notes: ninjurin-1 (NINJ1), human, UniProt Q92982, printed as hNINJ1∆1–36 (residues 1–36 removed); probably as the wild type (8×His and TEV site, cleaved); also called truncated hNINJ1; source: E. coli Rosetta2 (DE3), purified
B2: hNINJ1 Q91A (natural protein, human, UniProt Q92982 1-152, looked up)
chain: MDSGTEEYELNGGLPPGTPGSPDASPARWGWRHGPINVNHYASKKSAAESMLDIALLMANASQLKAVVEQGPSFAFYVPLVVLISISLVLAIGVGVLLIFLVKYDLNNPAKHAKLDFLNNLATGLVFIIVVVNIFITAFGVQKPLMDMAPQQ
notes: ninjurin-1 (NINJ1), human, UniProt Q92982, residues 1–152, point mutant; source: E. coli Rosetta2 (DE3), purified (DDM, Ni-NTA, TEV cleavage); not shown: 8×His, N-terminal, cleaved
B3: hNINJ1 T123L (natural protein, human, UniProt Q92982 1-152, looked up)
chain: B2 chain with A91Q, T123L
notes: as for B2
B4: hNINJ1 A138L (natural protein, human, UniProt Q92982 1-152, looked up)
chain: B2 chain with A91Q, A138L
notes: as for B2
B5: hNINJ1 V82W (natural protein, human, UniProt Q92982 1-152, looked up)
chain: B2 chain with V82W, A91Q
notes: as for B2
B6: hNINJ1 L121W (natural protein, human, UniProt Q92982 1-152, looked up)
chain: B2 chain with A91Q, L121W
notes: as for B2
B7: hNINJ1 A47L (natural protein, human, UniProt Q92982 1-152, looked up)
chain: B2 chain with A47L, A91Q
notes: as for B2
B8: hNINJ1 L121F (natural protein, human, UniProt Q92982 1-152, looked up)
chain: B2 chain with A91Q, L121F
notes: as for B2
B9: hNINJ1 D53A (natural protein, human, UniProt Q92982 1-152, looked up)
chain: B2 chain with D53A, A91Q
notes: as for B2
B10: hNINJ1 V82F (natural protein, human, UniProt Q92982 1-152, looked up)
chain: B2 chain with V82F, A91Q
notes: as for B2
B11: hNINJ1 I134F (natural protein, human, UniProt Q92982 1-152, looked up)
chain: B2 chain with A91Q, I134F
notes: as for B2
B12: full-length, wild-type human NINJ1 (ninjurin-1), residues 1–152 (natural protein, UniProt Q92982 1-152, looked up)
chain: B2 chain with A91Q
notes: ninjurin-1 (NINJ1), human, UniProt Q92982, residues 1–152; residues 39–141 are modelled in the filament structure; residues of the site probably remain at the N-terminus after cleavage; Forms filaments of no fixed number of subunits; also called hNINJ1; hNINJ1(1–152); source: E. coli Rosetta2 (DE3), extracted from membranes with DDM, purified (Ni-NTA, TEV cleavage, SEC on Superose 6); not shown: …
B13: hNINJ1 G95L (natural protein, human, UniProt Q92982 1-152, looked up)
chain: B2 chain with A91Q, G95L
notes: as for B2
B14: hNINJ1 K45Q (natural protein, human, UniProt Q92982 1-152, looked up)
chain: B2 chain with K45Q, A91Q
notes: as for B2
B15: hNINJ1 I84F (natural protein, human, UniProt Q92982 1-152, looked up)
chain: B2 chain with I84F, A91Q
notes: as for B2

Target: the molecule itself
Experiment: negative-stain TEM; 0.02 mg/ml purified protein on glow-discharged carbon-coated copper grids, 2% uranyl acetate; single-point mutants taken directly after TEV cleavage of the 8×His tag

Binding result, binds:
B1
B2
B3
B4
B5
B6
B7
B8
B9
B10
B11
B12
B13
B14
B15
